Source: the supplement of paper PMC9170038

Tested on: MS2 coat protein
Assay: apparent KD of MS2 coat protein; designed switch direction (-1 OFF switch, 1 ON switch): -1; higher = weaker reporter binding
Summary of the method: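 Designed RNA switches were transcribed on Illumina chips by stalled E. coli RNA polymerase and titrated with SNAP-549-labelled MS2 coat protein from 0.7 or 1.5 nM, doubling to 3 µM. Step length ran from 0.8–1.5 h at the lowest concentration to 10–20 min at the highest. The apparent KD is the median over clusters for each design, from curve-fitted normalised cluster fluorescence.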

[1] = Eterna round: R95, input ligand: FMN 200 uM
[2] = Eterna round: R95, input ligand: microRNA oligo, concentration not stated
[3] = Eterna round: R95, input ligand: none
[4] = input ligand: microRNA oligo, concentration not stated

Sequence	apparent KD of MS2 coat protein (input ligand: FMN 200 uM) [nM]	apparent KD of MS2 coat protein (input ligand: none) [nM]	apparent KD of MS2 coat protein [2] [nM]	further results
GCCACCACAUGAGGAUCAAACAUGAGGAUCACCCAUGUAUAACAAGCUUUUUGCUCGUCUUAUAAAUAUGUGGUGGC [Electric Eye 4 - Jieux - Sensor, turn-off variant 1] (Eterna round: R97, puzzle: Sensor, turn-off variant 1)	14	15.3		
GGGCAGUCAGGAUAUACAUGAGGAUCACCCAUGUUGAGAUGUGAAAGGGCGGGAGUAGGUAGAAGGGACGAGAG [JR_Exclu3_Sub041] (puzzle: Exclusion 3)			22.8	apparent KD of MS2 coat protein [1]: 27.4 nM; apparent KD of MS2 coat protein [3]: 29.9 nM
GAAUGCAAGUAAAGAUCUUACAUGAGGAUCACCCAUGUGCUCGUCUUAUAAAGUACUAUCACGAAAGUGAUAGUACA [Mat - Sensor v3 - turn-off var 1 - Eli Mod - D90] (puzzle: Sensor v3, turn-off variant 1)			84.1	apparent KD of MS2 coat protein [1]: 16.3 nM; apparent KD of MS2 coat protein [3]: 17.4 nM
CUAUUCCGAGGAUAUACAUGAGGAUCACCCAUGUCGGGCCUCCGCGUUUCGCGCCUCAGUAGAAGGCGGGUUUC [JL Riri mod 1] (puzzle: Exclusion 3)			18.3	
CAAGCUUUGCGAGGAUAUGAUGGCCUAUAUGCCUCAGAAGGCGCAGAAACUUGAGGAUCACCCAAGUGAUGCAAAUACGAAAAU [Mutated MS2 EX1.9] (Eterna round: R96, puzzle: Exclusion NG 1)	78.1	21.8		apparent KD of MS2 coat protein [4]: 17.3 nM
GAUUAUGCGAGCUUUAGGGACAUGAGGAUCACCCAUGUUCGUCUUAUUAGUCUAGGUGCGCUAACAUACCUAAAUCU [JMF 50] (puzzle: Sensor v3, turn-off variant 1)			35.4	apparent KD of MS2 coat protein [1]: 20.7 nM; apparent KD of MS2 coat protein [3]: 21.6 nM
AACCUGAGGCUUUGCUUUAGGUUUACAUGAGGAUCACCCAUGUAGGAUAUGGUAGGCAUAGCUUACCAGAAGGACAUGAAAAUU [Mat - Exclusion NG 3 - Mod of JL - D29] (Eterna round: R96, puzzle: Exclusion NG 3)	293	43.3		apparent KD of MS2 coat protein [4]: 34.1 nM
ACAGCGUGAGGAUAUACAUGAGGAUCACCCAUGUAUGGCAGGUUAUCCUGUCGUAUGUGUAGAAGGCACGCUGU [Exclusion 3 - Oddities v.3 ( A small slide from ms2 to fmn)] (puzzle: Exclusion 3)			50.8	
GUAUAGUGAGUCAGGAUAUUAGAGGACCAGUUUCCUAAGAAGGGACAUGAGGAUCACCCAUGUGCAUAGGACGU [Eternabot (Original) Solution 20] (Eterna round: R97, puzzle: Brourd's mod of Exclusion 4)	20.7	23		
CUUUUGUGAGGAUAUCAGUAGUUAAUAAAUAAAAUUACUACUGAGAAGGCACAUGAGGAUCACCCAUGUUCCUC [salish99_ex3_r3_075] (puzzle: Exclusion 4)			39.4	
UUUAAUUUUUUUUUUUUACAAGCUUUUUGCUCGUCUUAUACAUGAGGAUCACCCAUGUAGAUGGGAAAUGAAUUAUC [JMF 98] (puzzle: Sensor v3, turn-off variant 2)			144	apparent KD of MS2 coat protein [1]: 26.1 nM; apparent KD of MS2 coat protein [3]: 22.7 nM
AAGAUUAUUUCAGGAUAUAGAUUGAUGAUCGUACUAGAAGGGAAAACACAGUACAUGAGGAUCACCCAUGUUCAUGUAGUGCCA [Eternabot solution 29] (Eterna round: R96, puzzle: Exclusion NG 1)	17.2	17.4		apparent KD of MS2 coat protein [4]: 13.4 nM
GGUGAGCGAGGAUAUACAUGAGGAUCACCCAUGUGAGAGAAAUAAGUGAGGAAGAAAAGUAGAAGGCGCGAACG [Mat - Exclusion 3 - Mod of Salish D46] (puzzle: Exclusion 3)			25.3	apparent KD of MS2 coat protein [1]: 114 nM; apparent KD of MS2 coat protein [3]: 29.3 nM
CCGGAUAUGCAGGAUAUCGUAACGGAAACGUUACGAGAAGGGUAUACAUGAGGAUCACCCAUGUGUCCUACCGG [Mat - Exclusion 6 - Eli Mod - D86] (puzzle: Exclusion 6)			21.1	
GGCGGACAUGAGGAUCACCCAUGUCAGGAUAUUAGGCGAUCGUCGAAAGACGAUAGCCUGAGAAGGGACGCGCC [Eli x1 4.13] (Eterna round: R97, puzzle: Exclusion 1)	20.6	17.7		
ACAAGCUUUUUGUUCGUCUUAUAAAAUCCUAAGAGGAAAACAUGAGGAUCACCCAUGUAACAAAGACGGACUCAUGU [Sesor Array 12 - Jieux - Sensor v3, turn-off variant 2] (Eterna round: R96, puzzle: Sensor v3, turn-off variant 2)	11.5			apparent KD of MS2 coat protein [4]: 99.1 nM
UUUCUCGUUGUGAGGAUAUCGUUUUUGUUUUGGAUCGAGAAGGCACAUGAGGAUCACCCAUGUUUGUUGUGGUU [JR_BMOE4_Sub088] (puzzle: Brourd's mod of Exclusion 4)			93.3	

Sequence	apparent KD of MS2 coat protein (input ligand: FMN 200 uM) [nM]	apparent KD of MS2 coat protein (input ligand: none) [nM]	apparent KD of MS2 coat protein [2] [nM]	further results
AAGCGCGAGGCAGGAUAUGCAGAGCGGGUGGCCCGUGCAGAAAAUAACAUGAGGAUCACCCAUGUGCAGAAGGGCCGGGUGACC [Anataredra] (Eterna round: R96, puzzle: Exclusion NG 2)	60.5	72.9		apparent KD of MS2 coat protein [4]: 36.1 nM
AAUAAGCAAGGAUAUACGACGCAGAGCGUCAGUGGGCGAUGACAUGAGGAUCACCCAUGUAGAAGGUGCACAUC [Veisbebi] (puzzle: Exclusion 2)			81.5	
CAUAGUAAUUAGGAUAUCUGCCGGCUGAACCGAGGAGAAGGGAUUACAUGAGGAUCACCCAUGUGGUCCUAAGA [Relegebe] (puzzle: Exclusion 6)			14.5	
CGGUGUAGAGGAUAUACGUGAAUAUUAUUAGAUAAUAAUUUACAUGAGGAUCACCCAUGUAGAAGGCUAUAGCG [JR_Ex2_Sub083] (Eterna round: R97, puzzle: Exclusion 2)	24.9	20.1		
GGUGGACAUGAGGAUCACCCAUGUGAGGAUAUCGGCUAUCUUCUCGCUGUCGGUUGCUCGAGAAGGCACAUUGU [Exclusion 1 V94] (Eterna round: R96, puzzle: Exclusion 1)	112	64.9		apparent KD of MS2 coat protein [4]: 50.1 nM
UGAUCAGACCGAGGAUAUACAUGGAGGACGCACGUGAGUGCGUCCACUACAUGAGGAUCACCCAUGUAGAAGGCGGUCUGAUCU [JL ENG2 1.92] (Eterna round: R96, puzzle: Exclusion NG 2)	1100	144		apparent KD of MS2 coat protein [4]: 130 nM
UGAUCCCAUGUCAGGAUAUAGAGGCGGUAGCCUGGCUAGAAGGGACAUGAGGAUCACCCAUGUCGGUUCUUGCC (puzzle: Brourd's mod of Exclusion 4)			30.6	
AAAAUAAAGGCAGGAUAUCGGAGGCGCUGGCACCGAGAAGGGCCAGGGUGUCGUCAAAACAUGAGGAUCACCCAUGUGAGUGAC [Maanated] (Eterna round: R96, puzzle: Exclusion NG 1)	17.6	23		apparent KD of MS2 coat protein [4]: 12.7 nM
GCUGCUAGAGGAUAUACAUGAGGAUCACCCAUGUGAAAUUAUAGUGAGGAAAUGAAAAGUAGAAGGCUAGUAGA [Mod of Mat 16 - Jieux - Exclusion 3] (Eterna round: R97, puzzle: Exclusion 3)	381	36.2		
CCGGAAAGGAAGGAUAUGCUAGACGAUAGUCUAGCAGAAGGUCCUACAUGAGGAUCACCCAUGUGGCCUCCCGG [Mat - Exclusion 6 - Eli Mod - D47] (Eterna round: R97, puzzle: Exclusion 6)	680	114		
AAUAACAGAGGAUAUACUGUUUUAUGUAUUUAUUAUUUUAAACAUGAGGAUCACCCAUGUAGAAGGCUGAAUGA [JMF 55] (puzzle: Exclusion 2)			20.7	
GUAUGGUGAGGAUAUCGCCCUGCCUGCUCAAAGGCGAUGGACGAGAAGGCACAUGAGGAUCACCCAUGUCUGGG [Eternabot (L2) Solution 65] (Eterna round: R97, puzzle: Exclusion 4)	161	539		
GAUUUAGAGCAGGAUAUCAUAGAAUUGUAUGAAUGAGAAGGGCUCACAUGAGGAUCACCCAUGUGGUCCUAGAU [JL Dibiri mod 21] (puzzle: Exclusion 6)			21.7	
GACCUCACGGUCAGGAUAUCAGAACGUAAUGCGCAUGAGAAGGGACAUGAGGAUCACCCAUGUGGGCUCGUCGC [Maedvequ] (puzzle: Brourd's mod of Exclusion 4)			11.8	
GGUGGACAUGAGGAUCACCCAUGUGAGGAUAUCGGCUAUCUUCUCGCUGUCGGUUGCUCGAGAAGGCACAUUGU [Exclusion 1 V94] (puzzle: Exclusion 1)			52.2	
ACAUGAGGAUCACCCAUGUAAUCAUGAUGGCUGAUGUAGACUCAGGAUAUGUGUGGCUUUCUAUCACAGAAGGGAGAAGACUGG [Deportation 37 - Jieux - Exclusion NG 3] (Eterna round: R96, puzzle: Exclusion NG 3)	59.7	129		apparent KD of MS2 coat protein [4]: 116 nM
CCCAGUUAGUGAGGAUAUCCUACAUGAGGAUCACCCAUGUAAUAAAUGAGGAUUUCGGGUGUCUAGGAGAAGGCACGGAUAGGC [Ostracism 24 - Jieux - Exclusion NG 2] (Eterna round: R96, puzzle: Exclusion NG 2)	79.3	44.8		apparent KD of MS2 coat protein [4]: 36 nM
